MFI, MFI ratio to WT (ΔWT) and parental ratio data for 21 molecules are collected here from patent US20250163127A1.

Substrate in assay [1]: ICOS (Homo sapiens (Human)) (UniProt Q9Y6W8)
Put plainly: flow cytometry, transfected cells.

The target in assay [2] is CTLA-4 (Homo sapiens (Human)) (UniProt P16410). Description: flow cytometry, transfected cells.
Assay [3] addresses CD28 (human) (UniProt P10747). Description: flow cytometry, transfected cells.
Assay [4] addresses CD28 (human) (UniProt P10747). Put plainly: flow cytometry, cells expressing CD28.
Assay [5] has as its target PD-L1 (human). Description: flow cytometry, cells expressing PD-L1.
The target in assay [6] is CTLA-4 (human). Put plainly: flow cytometry, cells expressing CTLA-4.
CTLA-4 (human), sequence (chain, as listed by the source): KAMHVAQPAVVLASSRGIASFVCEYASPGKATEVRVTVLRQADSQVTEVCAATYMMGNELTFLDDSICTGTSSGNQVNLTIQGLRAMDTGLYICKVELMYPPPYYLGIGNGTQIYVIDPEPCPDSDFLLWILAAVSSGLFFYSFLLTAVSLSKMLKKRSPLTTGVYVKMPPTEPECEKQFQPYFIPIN

Where a chain is given by its changes, count along the chain named. Numbers in names are those of the source.

ICOS (Homo sapiens (Human)), sequence (Q9Y6W8 21-199 limits assumed): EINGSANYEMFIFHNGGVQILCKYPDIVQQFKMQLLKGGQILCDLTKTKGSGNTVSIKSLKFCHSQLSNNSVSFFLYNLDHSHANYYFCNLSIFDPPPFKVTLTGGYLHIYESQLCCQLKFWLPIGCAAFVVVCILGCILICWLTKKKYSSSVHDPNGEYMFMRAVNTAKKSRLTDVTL
PD-L1 (human), sequence (chain, as listed by the source): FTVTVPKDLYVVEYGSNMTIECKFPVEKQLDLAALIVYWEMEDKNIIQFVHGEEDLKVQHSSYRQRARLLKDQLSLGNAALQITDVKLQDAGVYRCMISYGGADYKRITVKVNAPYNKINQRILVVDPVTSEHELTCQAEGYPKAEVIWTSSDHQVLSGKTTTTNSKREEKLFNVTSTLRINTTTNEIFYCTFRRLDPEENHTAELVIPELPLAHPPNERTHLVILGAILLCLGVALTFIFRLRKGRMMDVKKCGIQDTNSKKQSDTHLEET

B1: ICOSL-Fc N52R/N57Y/Q100R (Fc fusion)
chain: DTQEKEVRAMVGSDVELSCACPEGSRFDLNDVYVYWQTSESKTVVTYHIPQRSSLEYVDSRYRNRALMSPAGMLRGDFSLRLFNVTPQDEQKFHCLVLSRSLGFQEVLSVEVTLHVAANFSVPVVSAPHSPSQDELTFTCTSINGYPRPNVYWINKTDNSLLDQALQNDTVFLNMRGLYDVVSVLRIARTPSVNIGCCIENVLLQQNLTVGSQTGNDIGERDKITENPVSTGEKNAAT
Regarding B1, the MFI in assay [1] is 6100 MFI; in assay [2], 4270 MFI; in assay [3], 3280 MFI. The MFI ratio to WT (ΔWT) came out at 0.03 fold in assay [1], 0.01 fold in assay [2] and 0.1 fold in assay [3].

B2: ICOSL-Fc N52V/N57T/Q100L (Fc fusion)
chain: B1 chain with R52V, Y57T, R100L
Take B2: the MFI was found to be 29200 MFI in assay [1], 11500 MFI in assay [2] and 6200 MFI in assay [3]. For the same molecule, the MFI ratio to WT (ΔWT) in assay [1] was 0.14 fold; in assay [2] it was 0.03 fold; in assay [3], 0.3 fold.

B3: ICOSL-Fc N52P/N57S/Q100G (Fc fusion)
chain: B1 chain with R52P, Y57S, R100G
As for B3, the values for the MFI in assay [1], in assay [2] and in assay [3] were 143000 MFI, 5050 MFI and 6800 MFI, respectively. Besides, the MFI ratio to WT (ΔWT) in assay [1] was 0.68 fold; in assay [2], 0.02 fold; in assay [3], 0.3 fold.

B4: ICOSL-Fc N52G/N57V/Q100G (Fc fusion)
chain: B1 chain with R52G, Y57V, R100G
On to B4, for which the MFI in assay [1] was 260000 MFI; in assay [2], 14700 MFI; in assay [3], 23700 MFI. Further, the MFI ratio to WT (ΔWT) in assay [1] worked out at 1.23 fold; in assay [2], 0.04 fold; in assay [3] it was 1.1 fold.

B5: ICOSL-Fc N52L/N57V (Fc fusion)
chain: B1 chain with R52L, Y57V, R100Q
On to B5, for which the MFI in assay [1] worked out at 257000 MFI; in assay [2], 151000 MFI; in assay [3], 54800 MFI. Also, the MFI ratio to WT (ΔWT) in assay [1] is 1.21 fold; in assay [2], 0.46 fold; in assay [3], 2.5 fold.

B6: ICOSL-Fc N52G/N57V (Fc fusion)
chain: B1 chain with R52G, Y57V, R100Q
As for B6, the figures for the MFI in assay [1], in assay [2] and in assay [3] were 332000 MFI, 52500 MFI and 69100 MFI, respectively. In addition, the MFI ratio to WT (ΔWT) in assay [1] was 1.57 fold; in assay [2] it was 0.16 fold; in assay [3], 3.1 fold.

B7: ICOSL-Fc N52C/N57E/Q100S (Fc fusion)
chain: B1 chain with R52C, Y57E, R100S
As to B7, the results for the MFI in assay [1], in assay [2] and in assay [3] were 125000 MFI, 10600 MFI and 13400 MFI, respectively. Further, the figures for the MFI ratio to WT (ΔWT) in assay [1], in assay [2] and in assay [3] were 0.59 fold, 0.03 fold and 0.6 fold, respectively.

B8: ICOSL-Fc N57Q/Q100P (Fc fusion)
chain: B1 chain with R52N, Y57Q, R100P
Consider B8, for which the MFI in assay [1] is 205000 MFI; in assay [2], 69100 MFI; in assay [3] it was 15200 MFI. Moreover, the results for the MFI ratio to WT (ΔWT) in assay [1], in assay [2] and in assay [3] were 0.97 fold, 0.21 fold and 0.7 fold, respectively.

B9: variant CD80 A12V/S15F/Y31H/M38L/T41G/M43L/D90N/T130A/P137L/N149D/N152T (Fc fusion)
chain: VIHVTKEVKEVVTLFCGHNVSVEELAQTRIHWQKEKKLVLGMLSGDMNIWPEYKNRTIFDITNNLSIVILALRPSDEGTYECVVLKYEKNAFKREHLAEVTLSVKADFPTPSISDFEIPTSNIRRIICSASGGFPELHLSWLENGEELDAITTTVSQDPETELYAVSSKLDFNMTTNHSFMCLIKYGHLRVNQTFNWNTTKQEHFPDN
Regarding B9, the MFI in assay [4] is 6 MFI; in assay [5], 5 MFI; in assay [6] it was 6 MFI. For the same molecule, the values for the parental ratio in assay [4], in assay [5] and in assay [6] were 0.06, 0.08 and 0.03, respectively.

B10: variant CD80 V4M/L70Q/A91G/I118V/T120S/T130A/K169E (Fc fusion)
chain: VIHMTKEVKEVATLSCGHNVSVEELAQTRIYWQKEKKMVLTMMSGDMNIWPEYKNRTIFDITNNLSIVIQALRPSDEGTYECVVLKYEKDGFKREHLAEVTLSVKADFPTPSISDFEVPSSNIRRIICSASGGFPEPHLSWLENGEELNAINTTVSQDPETELYAVSSELDFNMTTNHSFMCLIKYGHLRVNQTFNWNTTKQEHFPDN
Take B10: the MFI turned out to be 89 MFI in assay [4], 6 MFI in assay [5] and 263 MFI in assay [6]. The parental ratio in assay [4] worked out at 0.94; in assay [5], 0.09; in assay [6] it was 1.26.

B11: variant CD80 L70Q/A91G/I118V/T120S/T130A/K169E (Fc fusion)
chain: B10 chain with M4V
B11 displayed an MFI in assay [5] of 6 MFI.

B12: variant CD80 A91G/F92L/F108L/I118V/T120S (Fc fusion)
chain: B10 chain with M4V, Q70L, F92L, F108L, A130T, E169K
For the molecule B12, the MFI was 50 MFI in assay [4], 16 MFI in assay [5] and 128 MFI in assay [6]. In addition, the parental ratio stood at 0.53 in assay [4], 0.11 in assay [5] and 0.61 in assay [6].

B13: variant CD80 V22A/L70Q/S121P (Fc fusion)
chain: B10 chain with M4V, V22A, G91A, V118I, S120T, S121P, A130T, E169K
Turning to B13, the results for the MFI in assay [4], in assay [5] and in assay [6] were 5 MFI, 5 MFI and 7 MFI, respectively. Besides, the parental ratio was determined as 0.06 in assay [4], 0.07 in assay [5] and 0.04 in assay [6].

B14: variant CD80 K37E/F59S/L70Q/A91G/T120S/T130A (Fc fusion)
chain: B10 chain with M4V, K37E, F59S, V118I, E169K
Turning to B14, the figures for the MFI in assay [4], in assay [5] and in assay [6] were 20 MFI, 6 MFI and 74 MFI, respectively. Besides, the parental ratio in assay [4] worked out at 0.21; in assay [5] it was 0.08; in assay [6], 0.36.

B15: variant CD80 L70Q/A91G/T110A/I118V/T120S/T130A (Fc fusion)
chain: B10 chain with M4V, T110A, E169K
In the case of B15, the MFI in assay [4] was found to be 8 MFI; in assay [5], 5 MFI; in assay [6], 14 MFI. Besides, the parental ratio in assay [4] worked out at 0.09; in assay [5], 0.07; in assay [6] it was 0.07.

B16: variant CD80 I67F/L70R/E88G/A91G/I118V/T120S/T130A (Fc fusion)
chain: B10 chain with M4V, I67F, Q70R, E88G, E169K
With B16, the MFI amounted to 5 MFI in assay [4], 6 MFI in assay [5] and 6 MFI in assay [6]. For the same molecule, the figures for the parental ratio in assay [4], in assay [5] and in assay [6] were 0.05, 0.08 and 0.03, respectively.

B17: variant CD80 A91G/L102S (Fc fusion)
chain: B10 chain with M4V, Q70L, L102S, V118I, S120T, A130T, E169K
With B17, the MFI in assay [4] came to 6 MFI; in assay [5] it was 5 MFI; in assay [6], 6 MFI. The parental ratio in assay [4] came out at 0.06; in assay [5], 0.08; in assay [6] it was 0.03.

B18: variant CD80 K54M/L70Q/A91G/Y164H (Fc fusion)
chain: B10 chain with M4V, K54M, V118I, S120T, A130T, Y164H, E169K
Turning to B18, the results for the MFI in assay [4], in assay [5] and in assay [6] were 68 MFI, 5 MFI and 131 MFI, respectively. In addition, the parental ratio in assay [4] came to 0.71; in assay [5] it was 0.08; in assay [6], 0.63.

B19: variant CD80 S44P/L70Q/A91G/T130A (Fc fusion)
chain: B10 chain with M4V, S44P, V118I, S120T, E169K
For the molecule B19, the MFI in assay [4] amounted to 88 MFI; in assay [5] it was 5 MFI; in assay [6], 134 MFI. The parental ratio in assay [4] stood at 0.92; in assay [5] it was 0.07; in assay [6], 0.64.

B20: variant CD80 R29V/M43Q/E81R/L85I/K89R/D90L/A91E/F92N/K93Q/R94G (Fc fusion)
chain: VIHVTKEVKEVATLSCGHNVSVEELAQTVIYWQKEKKMVLTMQSGDMNIWPEYKNRTIFDITNNLSIVILALRPSDEGTYRCVVIKYERLENQGEHLAEVTLSVKADFPTPSISDFEIPTSNIRRIICSTSGGFPEPHLSWLENGEELNAINTTVSQDPETELYAVSSKLDFNMTTNHSFMCLIKYGHLRVNQTFNWNTTKQEHFPDN
For the molecule B20, the MFI in assay [4] was 1030 MFI; in assay [5] it was 1580 MFI; in assay [6] it was 996 MFI. In addition, the values for the parental ratio in assay [4], in assay [5] and in assay [6] were 0.08, 0.09 and 0.02, respectively.

B21: variant CD80 E24G/R29D/Y31L/Q33H/K36G/M38I/T41A/M43R/M47T/F59L/E81V/L85R/K89N/A91T/F92P/K93V/R94L/H96R/N149S/C182S (Fc fusion)
chain: VIHVTKEVKEVATLSCGHNVSVEGLAQTDILWHKEGKIVLAMRSGDTNIWPEYKNRTILDITNNLSIVILALRPSDEGTYVCVVRKYENDTPVLERLAEVTLSVKADFPTPSISDFEIPTSNIRRIICSTSGGFPEPHLSWLENGEELSAINTTVSQDPETELYAVSSKLDFNMTTNHSFMSLIKYGHLRVNQTFNWNTTKQEHFPDN
Take B21: the MFI in assay [4] is 1070 MFI; in assay [5], 1120 MFI; in assay [6], 1020 MFI. Also, the results for the parental ratio in assay [4], in assay [5] and in assay [6] were 0.08, 0.06 and 0.02, respectively.
